According to the DeepSol protein solubility set:

Test: soluble on expression in E. coli; label from the status in PepcDB or PDB records

Sequence	soluble on expression in E. coli
MGCVGAGADAEGREARKVNKQIEEQLAKDKQVMRATHRLLLLGAGESGKSTIVKQMRILHINGFNEAEKREKITDIRRNVRDAMQVILRAMDEIVPKVSLDDPSTAISRDYILRITNDPEDNYPSEFYDHILTCWKDKGVMACYERSSEYQLIDCAQYFLDKVDVVRQNNYDPSEQDILRCRVMTTGIFETKFEVDKVRFHMFDVGGQRDERRKWIQCFNDVTAIIFVCASSSYNLVLWEDNTQNRLRESLALFKNIWNNRWLKTISVILFLNKQDLLSEKIKAKRYLLESFFPEFEGYNLPNDAVFDNQEDKDVVRAKYFIRGEFLRISTANSDGRHHCYPHFTCAVDTENIRRVFNDCRDIIQRIHLRQYELL	not soluble
MGDEFRPSHEERSKMYKSNVRDQNEMRRKRREDEVQIRKNRRDEKFERNRQITVQRSLSHEETSELLKSVADGLQSMQETTIHEALTVLHENLNNTVWTIHVLVKVQILHKLSDVYCNRVISQTTRLLISRTLLKISGIDEVKYERYSSDDRCIQSLVFNISTYGSSEDILCDTFQSIACFIIRSITYRNLALDCAIVSELIDASTINMSIILHRSLMWLVFLFCEKLDRCSPHVDEIAPLLEIISNGIQSTDAMVQTDAASSCASLAEWPPIYHYMSDLKLCSKLVANLRNDKGNARPKVKAGINSIIQATGYFTEEMIDAGLLEVLKGFVNVSYMSQEVCFIISNICVEGEQTIDKLISSGVLREVARVMEASEYRSRREAAFVICHCCASANQKHLEYVVELGMLSAFTDLLTCMDVSLVSYILDAIYLLLQFGEMRLLPDNSNPVAIKLEEIGCREKLEFLCESQSVDIHARAYTIIDRFYVDDDAPLNDDPFAGYQRNNIDDTIEKMIREPIMDQPFSF	not soluble
MGDGISETIDAFHRGRFHIIQPKGRGHRAGMDAMLLASLVADDRACRIADLGAGAGAAGMAVAARLEKAEVTLYERSQEMAEFARRSLELPDNAAFSARIEVLEADVTLRAKARVEAGLPDEHFHHVIMNPPYNDAGDRRTPDALKAEAHAMTEGLFEDWIRTASAIMVSGGQLSLISRPQSVAEIIAACGSRFGGLEITLIHPRPGEDAVRMLVTAIKGSRARLTFRAPLIMHET	soluble
MGEETINSTQNKTRTKTTRPKAVYLWTVSDVLKWYRRHCGEYTQYEQLFAQHDITGRALLRITDSSLQRMGVTDNRDREAIWREIVKQRLKTDIMEIRDMERLNIY	soluble
MGEGTRGEAFKKIREGYKVHIFDESYVSYINKGKGWMKVGGGIKVNPKRKRFAVVGGITISKEGITFSYSTYKKPSLNSKDIILYLRKVIKDEKTVIVMDNARIHGNEVREFLEENGVEFVYLPPYSPDKSPAEGPWAVLKKRLYSKIYTDFETLMWDATRFLRSISKRVNDLTYSVKRCGEPLDVNTE	soluble
MGEPFGGPLMGRLVSLLPSATDLIFELGLGEQLLGVSHCCDHPGAASLPVLTRSIIGSDLPQAEIDRAVSEAVRAGRALYTVDGPLLDRLRPDLVVTQGVCEVCAVTPGTVAEAVRFLPGCLPAEQVLSLEGKTFAGILADLRALARAAGVRERGEALAAESERRWNAIRPVGVQVPEPPRVLTLEWVDPPFYGGHWVPEQVAQAGGKDVLGHAGRDSGRTSWEDVVQLDPDVIVVMCCGYGLSDNAEFARQVLSHPELRAVRAGQVWGVDANAHFSRPSLGVVRGAEVLAALLRGEESAGESVRVRAELEHHHHHH	not soluble
MGERKGQNFYYPPDFNYKTHKSLNGYHGTHALRERAKKIDQGILVIRFEMPFNIWCLGCHNHVGMGVRYNAEKKKIGMYYTTPLHEFRMKCHLCDNYYVIRTDPKNFDYELVEGCSRQELRFDPTDIAQIGAVDRGFTQKLAADAMFKKEHEAEDKDKAATEEGRVDKLEWIQERMRDDFTANSFLRAQFRNEKKSLNETRARDANLRDKLSIGTTQLLPETEEDRRIASMMTRYRDTKTHDDHLESSRDRIESRRIFRRPEETDTPSTSSGSSGGAVPSASERLKATMKAERDKRINASFSTAGTSSATQKLLGIKRKSASSLGVQIKKAAPENSSLQDEEPAVEKPNISNPISLIAQEYGNSSDDSD	not soluble
MGESGTKSRFPIRVQLEANKQYYWCRCGLSQSQPFCDGAHRGTGMNPVVFVVRETSPVWLCVCKETKNIPFCDCFRTDLEHHHHHH	not soluble
MGFAKPPWGGKLKGVVRILGGKARGVALKVPASARPSPVRLRKALFDYLRLRYPRRGRFLDLFAGSGAVGLEAASEGWEAVLVEKDPEAVRLLKENVRRTGLGARVVALPVEVFLPEAKAQGERFTVAFMAPPYAMDLAALFGELLASGLVEAGGLYVLQHPKDLYLPLGERRVYGENALTLVEV	soluble
MGFWCRMSENQEQEEVITVRVQDPRVQNEGSWNSYVDYKIFLHTNSKAFTAKTSCVRRRYREFVWLRKQLQRNAGLVPVPELPGKSTFFGTSDEFIEKRRQGLQHFLEKVLQSVVLLSDSQLHLFLQSQLSVPEIEACVQGRSTMTVSDAILRYAMSNCGWAQEERQSSSHLAKGDQPKSCCFLPRSGRRSSPSPPPSEEKDHLEVWAPVVDSEVPSLESPTLPPLSSPLCCDFGRPKEGTSTLQSVRRAVGGDHAVPLDPGQLETVLEK	soluble
MGGEGPGSDDIVKKMAQLMMQGAVMLDKTCPADGLPLFKLKTGDVVCPVHGKVVIVASDEEARDVEVEEIIREVRYRAARNVMKGLEEDNVDTVSKWLGVLETAERILAIRRGSRQGQGSVRGEGRESK	not soluble
MGGLFTGIALDSAGHDVTIAEQSAGDLRSRGGGIVAQQSIRQFLSRHDIVDPANITTRASERRFLTADGDVRTSTPDSMVFTSWDAVYRQLRAAFPDDRYHTGQTVTGVRATDGTVTFSDGDRTTADLVVAADGGQSTARAQLFPDADPEFADYVAWRGVVSEAELSDAVIDAFDGRFTFYQGEQMLILAYFIPGEDGNTAPGDRRLNWVWYDTLSGRERETIFTDTTGTSQQFSVSPGQLRDPVESHQRERAAETLPPVFTDLVATTAAPFVQAIYDLQSPQMTVDRVCLVGDAAFVARPHTAAGTSKAASDAVELKAALDRHSSLGGALASWDDARTDYGARLVAQGKRMGDERLSLGSLEHHHHHH	not soluble
MGGRSRWEIAQESTLALARKCEQFDPDGITVYLFSGKFKRYDDVTSAKVAQIFLENDPAGTTNLAGVLQDALNNYFQRKAAGKTKPNGETILVITDGEPDDRKAVFETIIHATRQMERDEELGISMIQVGSDAQATKFLKALDDQLQSVGAKFDICDTITLEDLEDMSLADVLMNAITDLEHHHHHH	not soluble
MGGSHHHHHHGMASALYAKGGKGSAVPSDSQAREKLALYVYEYLLHIGAQKSAQTFLSEIRWEKNITLGEPPGFLHSWWCVFWDLYCAAPDRREACEHSGEAKAFQDYSAAAAPSPVMGSMAPGDTMAAGSMAAGFFQGPPGSQPSPHNPNAPMMGPHGQPFMSPRFPGGPRPTLRMPSQPPAGLPGSQPLLPGAMEPSPRAQGHPSMGGPMQRVTPPRGMASVGPQSYGGGMRPPPNSLAGPGLPAMNMGPGVRGPWASPSGNSIPYSSSSPGSYTGPPGGGGPPGTPIMPSPGDSTNSSENMYTIMNPIGQGAGRANFPLGPGPEGPMAAMSAMEPHHVNGSLGSGDMDGLPKSSPGAVAGLSNAPGTPRDDGEMAAAGTFLHPFPSESYSPGMTMSV	not soluble
MGGSHHHHHHGMASAQETNQTPGPMLCSTGCGFYGNPRTNGMCSVCYKEHLQRQQNSGRMSPMGTASGSNSPTSDSASVQRADTSLNNCEGAAGSTSEKSRNVPVAALPVTQQMTEMSISREDKITTPKTEVSEPVVTQPSPSVSQPSTSQSEEKAPELPKPKKNRCFMCRKKVGLTGFDCRCGNLFCGLHRYSDKHNCPYDYKAEAAAKIRKENPVVVAEKIQRI	not soluble
MGGSHHHHHHGMASMTGGQQMGRTLYDDDDKDRWGSMNYVIIGGDAAGMSAAMQIVRNDENANVVTLEKGEIYSYAQCGLPYVISGAIASTEKLIARNVKTFRDKYGIDAKVRHEVTKVDTEKKIVYAEHTKTKDVFEFSYDRLLIATGVRPVMPEWEGRDLQGVHLLKTIPDAERILKTLETNKVEDVTIIGGGAIGLEMAETFVELGKKVRMIERNDHIGTIYDGDMAEYIYKEADKHHIEILTNENVKAFKGNERVEAVETDKGTYKADLVLVSVGVKPNTDFLEGTNIRTNHKGAIEVNAYMQTNVQDVYAAGDCATHYHVIKEIHDHIPIGTTANKQGRLAGLNMLDKRRAFKGTLGTGIIKFMNLTLARTGLNEKEAKGLHIPYKTVKVDSTNMAGYYPNAKPLYLKLLYRSDTKQLLGGQVIGEEGVDKRIDVIAMALFNKMSIHDLEDVDLSYAPPYNSVWDPIQQAARRAE	soluble
